Results: US20120275996A1 (AbbVie / Abbott, published 2012)
Residue numbers refer to the chain shown, from its start. In names and notes the source's numbering stands. Values belong to the binder of their own block, whether it stands above or below them.

Columns and labels:
human IL-1α [1] = biological target: T1, human IL-1α (human, UniProt P01583 113-271); assay: SPR (Biacore 3000), antibody captured, antigen in solution, 25 °C
T1 construct: also called hIL-1α; recombinant purified human IL-1α
T1 sequence: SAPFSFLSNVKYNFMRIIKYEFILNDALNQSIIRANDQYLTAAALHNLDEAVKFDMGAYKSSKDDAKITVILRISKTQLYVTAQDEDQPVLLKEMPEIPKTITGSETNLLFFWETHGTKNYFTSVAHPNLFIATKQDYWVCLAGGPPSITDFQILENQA
Protocol: (§1) The BIACORE assay (Biacore, Inc, Piscataway, N.J.) determines the affinity of antibodies with kinetic measurements of on-, off-rate constants. Binding of antibodies to recombinant purified human IL-1α and cynomolgus IL-1α was determined by surface plasmon resonance-based measurements with a Biacore® 3000 instrument (Biacore® AB, Uppsala, Sweden) using running HBS-EP (10 mM HEPES [pH 7.4], 150 mM NaCl, 3 mM EDTA, and 0.005% surfactant P20) at 25° C. All chemicals were obtained from Biacore® AB (Uppsala, Sweden) or otherwise from a different source as described in the text. Approximately 5000 RU of goat anti-mouse IgG, (Fcγ), fragment specific polyclonal antibody (Pierce Biotechnology Inc, Rockford, Ill.) diluted in 10 mM sodium acetate (pH 4.5) was directly immobilized across a CM5 research grade biosensor chip using a standard amine coupling kit according to manufacturer's instructions and procedures at 25 μg/ml. Unreacted moieties on the biosensor surface were blocked with ethanolamine. Modified carboxymethyl dextran surface in flowcell 2 and 4 was used as a reaction surface. Unmodified carboxymethyl dextran without goat anti-mouse IgG in flow cell 1 and 3 was used as the reference surface. For kinetic analysis, rate equations derived from the 1:1 Langmuir binding model were fitted simultaneously to association and dissociation phases of all eight injections (using global fit analysis) with the use of Biaevaluation 4.0.1 software. Purified antibodies were diluted in HEPES-buffered saline for capture across goat anti-human IgG specific reaction surfaces. Antibodies to be captured as a ligand (25 μg/ml) were injected over reaction matrices at a flow rate of 5 μl/minute. The association and dissociation rate constants, kₒₙ (unit M⁻¹s⁻¹) and koff (unit s⁻¹) were determined under a continuous flow rate of 25 μl/min Rate constants were derived by making kinetic binding measurements at ten different antigen concentrations ranging from 10-200 nM. The equilibrium dissociation constant (unit M) of the reaction between antibodies and the target antigen was then calculated from the kinetic rate constants by the following formula: KD=koff/kₒₙ. Binding is recorded as a function of time and kinetic rate constants are calculated. In this assay, on-rates as fast as 10⁶M⁻¹s⁻¹ and off-rates as slow as 10⁻⁶ s⁻¹ can be measured.

human IL-1α [2] = biological target: T1, human IL-1α; assay: cell-based or functional assay
cynomolgus IL-1α [3] = biological target: T2, cynomolgus IL-1α (cynomolgus, UniProt P79340 113-271, limits assumed); assay: cell-based or functional assay
T2 sequence (looked up): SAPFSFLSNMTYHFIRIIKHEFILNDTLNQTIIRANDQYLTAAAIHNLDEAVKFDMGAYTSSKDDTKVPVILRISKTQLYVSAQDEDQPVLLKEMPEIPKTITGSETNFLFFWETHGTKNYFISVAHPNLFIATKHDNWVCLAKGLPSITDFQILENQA

human IL-1α [4] = biological target: T1, human IL-1α; assay: ELISA; antibody captured by anti-human Fc, biotinylated antigen titrated
Protocol: Plates were washed five times in washing buffer (PBS containing 0.05% Tween 20), and blocked for 1 hour at 25° C. with 200 μl per well superblock blocking buffer (Thermo scientific, #37515). Blocking buffer was removed by tapping plates, and 2 μg/ml of each antibody in PBS containing 10% superblock, 0.5% tween-20 was added to the wells at 100 μl per well and incubated at 25° C. for 1 hour. The wells were washed five times in 1×PBST, and 1 μg/ml biotinylated antigen was titrated at 1:6 serial dilutions (for a range of μg to pg in PBS containing 10% superblock, 0.05% Tween 20). Each dilution of antigen was then added to the plates and incubated for 1 hour at 25° C. The wells were washed five times in 1XPBST and incubated for 1 hour at […]. with polyHRP streptavidin (KPL #474-3000, Gaithersburg, Md.). The wells were washed five times in 1XPBST, and 100 μl of ULTRA-TMB ELISA (Pierce, Rockford, Ill.) were added per well. Following color development the reaction was stopped with 1N HCL and absorbance at 450 nm is measured. The results are shown in Table 11 and the numerical value indicates binding of human anti-IL-1a antibodies to human IL-1α.

cynomolgus IL-1α [5] = biological target: T2, cynomolgus IL-1α; assay: SPR (Biacore 3000), antibody captured, antigen in solution, 25 °C
Protocol: as §1

B1: 3D12.6 (antibody, V domains shown)
VH: EIQLVQSGSELKKPGASVKVSCKASGYTFTNYGMNWVRQAPGQDLERMAWINTYTGESTYADDFKGRFVFSLDTSVSTAYLQISSLKAEDTAVYFCARGIYYYGSSYAMDYWGQGTTVTVSS
VL: DIQMTQSPSSLSASVGDRVTITCRASQDISNCLNWYQQKPGKTPKLLIYYTSRLHSGVPSRFSGSGSGTDYTFTISSLQPEDIATYFCQQGKTLPYAFGQGTKLEIK
notes: Full-length humanized antibody; VH is fused to a human IgG1 constant region with L234A and L235A (EU numbering); also called VH H3D12VH.1A / VL H3D12VK.1C; VH3D12.6
Kd (human IL-1α [1]): 1.78 nM
koff (human IL-1α [1]): 0.00206 s⁻¹
kon (human IL-1α [1]): 1.16e+06 M⁻¹ s⁻¹

B3: 3D12-372-10 (antibody, V domains shown)
VH: EIQLVQSGAEVKKPGASVKVSCKASGYTFTNYGMNWVRQAPGQGLEWMGWINTYTGESTYADDFKGRFTFTLDTSTSTAYMELSSLRSEDTAVYFCARGIYYYGSSYAMDYWGQGTTVTVSS
VL: DIQMTQSPSSLSASVGDRVTITCRASQDISDMLNWYQQKPGKTPKLLIYHTSRLYSGVPSRFSGSGSGTDYTFTISSLQPEDIATYFCQQGKTLPPAFGQGTKLEIKR
notes: no constant regions are stated for this clone
Potency on hIL-1α (pM); inhibition of IL-1α induced hIL-8 production by MRC-5 cells (human IL-1α [2]): 49.9 pM
Potency on cyno IL-1α (pM); inhibition of IL-1α induced hIL-8 production by MRC-5 cells (cynomolgus IL-1α [3]): 49.2 pM
EC50 (human IL-1α [4]): 0.0721 nM

B4: 3D12-362-10 (antibody, V domains shown)
VH: B3 VH with I2V, A16V, N31T, N35H, K65Q, F68V, D110N
VL: B3 VL with D31N, M32C, H50Y, Y55H, P96Y
notes: no constant regions are stated for these clones; The humanized parents used human IgG1 with L234A/L235A and human kappa
Potency on hIL-1α (pM); inhibition of IL-1α induced hIL-8 production by MRC-5 cells (human IL-1α [2]): 4.8 pM
Potency on cyno IL-1α (pM); inhibition of IL-1α induced hIL-8 production by MRC-5 cells (cynomolgus IL-1α [3]): 6.2 pM
Kd (human IL-1α [1]): 0.0528 nM
koff (human IL-1α [1]): 8.38e-05 s⁻¹
kon (human IL-1α [1]): 1.59e+06 M⁻¹ s⁻¹
Kd (cynomolgus IL-1α [5]): 0.0135 nM
koff (cynomolgus IL-1α [5]): 2.19e-05 s⁻¹
kon (cynomolgus IL-1α [5]): 1.63e+06 M⁻¹ s⁻¹
EC50 (human IL-1α [4]): 0.0196 nM

Next, values leading:

Kd (human IL-1α [1]): 0.665 nM
koff (human IL-1α [1]): 0.00108 s⁻¹
kon (human IL-1α [1]): 1.64e+06 M⁻¹ s⁻¹
B2: 3D12.11 (antibody, V domains shown)
VH: B3 VH with G44D, W47R, G49A
VL: B1 VL
notes: Full-length humanized antibody; VH is fused to a human IgG1 constant region with L234A and L235A (EU numbering); also called VH H3D12VH.2A / VL H3D12VK.1C; VH3D12.11

Potency on hIL-1α (pM); inhibition of IL-1α induced hIL-8 production by MRC-5 cells (human IL-1α [2]): 38.6 pM
EC50 (human IL-1α [4]): 0.0742 nM
B5: 3D12-372-15 (antibody, V domains shown)
VH: B3 VH with G44D
VL: B3 VL with D31N, H50Y, S56P, P96Y
notes: as for B3

Potency on hIL-1α (pM); inhibition of IL-1α induced hIL-8 production by MRC-5 cells (human IL-1α [2]): 29.3 pM
Potency on cyno IL-1α (pM); inhibition of IL-1α induced hIL-8 production by MRC-5 cells (cynomolgus IL-1α [3]): 4.9 pM
EC50 (human IL-1α [4]): 0.133 nM
B6: 3D12-362-10/372-10 (antibody, V domains shown)
VH: B3 VH with I2V, A16V, N31T, N35H, K65Q, F68V, D110N
VL: B3 VL
